Experimental data taken from PMC9687980.

Target: human Fc fusion angiotensin-converting enzyme 2 (hACE2-Fc) (human) (UniProt Q9BYF1)
Experiment: BLI

Sequence of human Fc fusion angiotensin-converting enzyme 2 (hACE2-Fc) (human) (Q9BYF1 18-740): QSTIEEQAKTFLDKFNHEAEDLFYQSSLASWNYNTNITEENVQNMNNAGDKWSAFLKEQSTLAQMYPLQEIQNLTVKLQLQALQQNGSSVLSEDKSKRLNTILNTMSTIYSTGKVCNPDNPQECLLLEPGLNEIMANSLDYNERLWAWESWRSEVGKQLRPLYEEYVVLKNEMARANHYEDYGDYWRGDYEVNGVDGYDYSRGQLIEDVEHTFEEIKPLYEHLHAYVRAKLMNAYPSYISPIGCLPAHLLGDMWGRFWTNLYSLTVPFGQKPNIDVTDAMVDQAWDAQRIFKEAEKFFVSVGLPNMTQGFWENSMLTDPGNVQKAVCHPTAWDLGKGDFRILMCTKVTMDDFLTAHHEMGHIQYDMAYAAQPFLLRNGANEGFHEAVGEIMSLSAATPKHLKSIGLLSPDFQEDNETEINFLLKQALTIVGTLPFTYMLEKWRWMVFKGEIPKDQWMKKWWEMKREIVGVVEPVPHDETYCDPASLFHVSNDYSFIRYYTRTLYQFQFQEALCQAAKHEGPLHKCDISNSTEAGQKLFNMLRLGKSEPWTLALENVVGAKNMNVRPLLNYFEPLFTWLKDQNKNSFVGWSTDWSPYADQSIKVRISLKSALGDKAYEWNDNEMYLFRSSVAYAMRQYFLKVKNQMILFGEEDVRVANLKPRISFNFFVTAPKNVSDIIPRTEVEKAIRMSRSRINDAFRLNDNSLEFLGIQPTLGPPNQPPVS

## MBP-fused spike receptor binding domain of SARS-CoV-2 Omicron BA.1 (MBP-RBDomi) (domain or fragment)
  Kd: 10.1 nM
  koff: 0.00174 s⁻¹
  kon: 172000 M⁻¹ s⁻¹

## spike RBD of SARS-CoV-2 Omicron expressed in a mammalian system (domain or fragment)
  Kd: 7.16 nM
  koff: 0.00161 s⁻¹
  kon: 226000 M⁻¹ s⁻¹
